# B1: CD33-IgG1: S100A9 high-affinity chimeric (CD33-IgG1) decoy receptor (protein)
# chain: DPNFWLQVQESVTVQEGLCVLVPCTFFHPIPYYDKNSPVHGYWFREGAIISRDSPVATNKLDQEVQEETQGRFRLLGDPSRNNCSLSIVDARRRDNGSYFFRMERGSTKYSYKSPQLSVHVTDLTHRPKILIPGTLEPGHSKNLTCSVSWACEQGTPPIFSWLSAAPTSLGPRTTHSSVLIITPRPQDHGTNLTCQVKFAGAGVTTERTIQLNVTYVPQNPTTGIFPGDGSGKQETRAGVVH
# modifications: left off: a dimerising Fc or GST
# Assays:
# MDS BM-MNC [1] = assay: Pyroptosis flow cytometry panel in MDS BM-MNC incubated with autologous BM plasma; format: cell-based, human
# Experimental: For human samples, treated and untreated BM-MNC were incubated overnight in IMDM, supplemented with 10% autologous BM plasma. Subsequently, cells were harvested, washed twice in 1×PBS, and stained with LIVE/DEAD Violet fluorescent reactive dye according to the manufacturer's protocol (Life Technologies). Cells were resuspended in 1×PBS with 2% BSA, and incubated at room temperature for 15 minutes to block non-specific binding. After washing, cells were stained with 30×FAM-FLICA® Caspase-1 and Caspase-3/7 solution at a ratio of 1:30 for 2 hours at 37° C. Cells were washed and stained for cell surface receptors using CD38:PE-CF594, CD33:BV711, CD34:APC (BD Biosciences), and CD71:PE-Cyanine7 (eBioscience). All antibodies were diluted 1:20, and cells were stained for 30 minutes at 4° C. Cells were washed, resuspended in 1× binding buffer, and stained with Annexin-V:Cy5.5 at a dilution of 1:20 for 15 minutes at room temperature (BD Biosciences). 1× binding buffer was added to a final volume of 400 μL. Sample acquisitions were carried out using a BD LSR II flow cytometer and FACSDiva software (BD Biosciences). Calibration of the flow cytometer was carried out prior to each experiment using Rainbow Mid-Range Fluorescent Particles (BD Biosciences). To establish fluorescence compensation settings, ArC Amine Reactive Compensation Beads were used for LIVE/DEAD Violet staining (Life Technologies), and BD CompBead Plus Anti-Mouse Ig κ/Negative Control (BSA) Compensation Plus Particles were used for surface receptor conjugates (BD Biosciences). Data were analyzed using FlowJo 9.7.5 software (FlowJo, LLC, Ashland, Oreg.).
# MDS BM-MNC [2] = assay: qPCR of pyroptosis-related genes in lower-risk MDS BM-MNC treated with CD33-IgG1; format: cell-based, human; conditions: lower-risk MDS BM-MNC (n=5), 24 hours, versus autologous BM plasma alone
# Experimental: RNA was isolated from BM-MNC using the RNeasy Mini Kit (Qiagen). cDNA was produced using the iScript cDNA Synthesis Kit (Bio-Rad). Sequences for primers can be found in Table 1. GAPDH mRNA was used for transcript normalization. cDNA was amplified using the iQ SYBR Green Supermix and the CFX96 Real-Time PCR Detection System (Bio-Rad). PCR conditions were as follows: 10 minutes at 95° C., followed by 40 cycles of amplification (15 seconds at 95° C. and 1 minute at 60° C.). Relative gene expression was calculated using the […] method.
molecule,measurement,setting,value
B1,"reduction of fraction of pyroptotic cells, maximum lineage-specific change, CD33+ cells","MDS BM-MNC [1]; CD33+ immature myeloids, 0.5 μg CD33-IgG1 or 0.1 μM IRAK4 inhibitor, 24 hours",68%
same,"reduction of fraction of pyroptotic cells, maximum lineage-specific change, progenitor cells","MDS BM-MNC [1]; CD34+CD38+ progenitor cells, 0.5 μg CD33-IgG1 or 0.1 μM IRAK4 inhibitor, 24 hours",23%
same,"reduction of fraction of pyroptotic cells, maximum lineage-specific change, stem cells","MDS BM-MNC [1]; CD34+CD38− stem cells, 0.5 μg CD33-IgG1 or 0.1 μM IRAK4 inhibitor, 24 hours",44%
same,"reduction of fraction of pyroptotic cells, maximum lineage-specific change, CD71+ cells","MDS BM-MNC [1]; CD71+ erythroids, 0.5 μg CD33-IgG1 or 0.1 μM IRAK4 inhibitor, 24 hours",64%
same,fraction of pyroptotic cells across all lineages studied,"MDS BM-MNC [1]; MDS BM-MNC (n=4), autologous BM plasma, 0.5 μg CD33-IgG1 or 0.1 μM IRAK4 inhibitor",marked reduction
same,MDSC fraction,MDS BM-MNC [1]; short-term treatment with the chimeric receptor,significantly reduced
same,CASP3 expression,MDS BM-MNC [2],markedly reduced
same,"expression of CASP1, IL-1β, IL-18, and NLRP3",MDS BM-MNC [2],reduced

# Source: US10697970B2, “S100A9 levels for predicting lenalidomide and erythropoietin responsiveness” (H. LEE MOFFITT CANCER CENTER AND RESEARCH INSTITUTE, INC., priority 2015, dated 2020)
